Laboratory results reported in patent US20070026428A1.
Each block holds one molecule with its values, some of them ahead of it.

What was measured:
Test in all cases: cell-based or functional assay
[1] = biological target: cz::ced-3(p15), CED-3 small subunit with the CZ leucine zipper at its N-terminus (opposite orientation) (C. elegans) (UniProt P42573)
[2] = biological target: ced-3(p15)::nz, CED-3 small subunit p15 with the NZ anti-parallel leucine zipper at its C-terminus (C. elegans) (UniProt P42573)
[3] = biological target: Caspase-3(p12)::nz, human Caspase-3 small subunit p12 with the NZ anti-parallel leucine zipper at its C-terminus (human) (UniProt P42574)

Molecule: ced-3(p17)::nz, CED-3 large subunit with the NZ leucine zipper at its C-terminus (opposite orientation) (from UniProt P42573 222-374)
% GFP positive touch cells (surviving cells), zippers in the opposite orientation [1]: 96%

% GFP positive cells in L1 larvae, ced-3(n717) background [2]: 5.9% | % GFP positive cells in L1 larvae, ced-8(n1891) background [2]: 21.9% | % GFP positive cells in adults, ced-3(n717) background [2]: 5.1% | % GFP positive cells in adults, ced-8(n1891) background [2]: 4.5% | % GFP positive cells in adults, recCED-3(uIs37) [2]: 5.4%
Molecule: cz::ced-3(p17), CED-3 large subunit p17 with the CZ anti-parallel leucine zipper at its N-terminus (from UniProt P42573 222-374)
death of touch sensory neurons monitored by the loss of GFP fluorescence, extrachromosomal arrays [2]: > 60% | death of touch sensory neurons, integrated lines [2]: > 95%

% GFP positive cells in adults, ced-3(n717) background [3]: 1% | % GFP positive cells in adults, recCaspase-3(uIs40) [3]: 0.9% | % of YFP positive HeLa cells with nuclear YFP (caspase-sensing EYFP vector) after doxycycline induction [3]: 30 to 40% | animals completely or partially paralyzed within three hours after induction of heat shock, hsp-16 and myo-3 promoters [3]: > 50% | animals completely paralyzed within 12 hours after heat shock, hsp-16 and myo-3 promoters [3]: 100%
B1: cz::Caspase-3(p17), human Caspase-3 large subunit p17 with the CZ anti-parallel leucine zipper at its N-terminus (protein, part only; not given: Exact insert limits, part only)
chain, part: GGSGMENTENSVDSKSIKNLEPKIIHGSESMDSGISLDNSYKMDYPEMGLCIIINNKNFHKSTGMTSRSGTDVDAANLRETFRNLKYEVRNKNDLTREEIVELMRDVSKEDHSKRSSFVCVLLSHGEEGIIFGTNGPVDLKKITNFFRGDRCRSLTGKPKLFIIQACRGTELDCGIETD
apoptotic death of touch sensory neurons in C. elegans, extrachromosomal arrays [3]: 80% | death of touch receptor neurons in C. elegans, integrated DNA [3]: 100% | killing of embryonically derived ALM and PLM touch neurons after heat shock in the embryo, hsp-16 and mec-18 promoters [3]: > 90% | paralysis of animals (death of body wall muscle cells) after heat shock, hsp-16 and myo-3 promoters [3]: > 90%
